T1: HCoV-229E spike (HCoV-229E, UniProt P15423 16-1173)
T1 construct: whole, on cells
T1 sequence: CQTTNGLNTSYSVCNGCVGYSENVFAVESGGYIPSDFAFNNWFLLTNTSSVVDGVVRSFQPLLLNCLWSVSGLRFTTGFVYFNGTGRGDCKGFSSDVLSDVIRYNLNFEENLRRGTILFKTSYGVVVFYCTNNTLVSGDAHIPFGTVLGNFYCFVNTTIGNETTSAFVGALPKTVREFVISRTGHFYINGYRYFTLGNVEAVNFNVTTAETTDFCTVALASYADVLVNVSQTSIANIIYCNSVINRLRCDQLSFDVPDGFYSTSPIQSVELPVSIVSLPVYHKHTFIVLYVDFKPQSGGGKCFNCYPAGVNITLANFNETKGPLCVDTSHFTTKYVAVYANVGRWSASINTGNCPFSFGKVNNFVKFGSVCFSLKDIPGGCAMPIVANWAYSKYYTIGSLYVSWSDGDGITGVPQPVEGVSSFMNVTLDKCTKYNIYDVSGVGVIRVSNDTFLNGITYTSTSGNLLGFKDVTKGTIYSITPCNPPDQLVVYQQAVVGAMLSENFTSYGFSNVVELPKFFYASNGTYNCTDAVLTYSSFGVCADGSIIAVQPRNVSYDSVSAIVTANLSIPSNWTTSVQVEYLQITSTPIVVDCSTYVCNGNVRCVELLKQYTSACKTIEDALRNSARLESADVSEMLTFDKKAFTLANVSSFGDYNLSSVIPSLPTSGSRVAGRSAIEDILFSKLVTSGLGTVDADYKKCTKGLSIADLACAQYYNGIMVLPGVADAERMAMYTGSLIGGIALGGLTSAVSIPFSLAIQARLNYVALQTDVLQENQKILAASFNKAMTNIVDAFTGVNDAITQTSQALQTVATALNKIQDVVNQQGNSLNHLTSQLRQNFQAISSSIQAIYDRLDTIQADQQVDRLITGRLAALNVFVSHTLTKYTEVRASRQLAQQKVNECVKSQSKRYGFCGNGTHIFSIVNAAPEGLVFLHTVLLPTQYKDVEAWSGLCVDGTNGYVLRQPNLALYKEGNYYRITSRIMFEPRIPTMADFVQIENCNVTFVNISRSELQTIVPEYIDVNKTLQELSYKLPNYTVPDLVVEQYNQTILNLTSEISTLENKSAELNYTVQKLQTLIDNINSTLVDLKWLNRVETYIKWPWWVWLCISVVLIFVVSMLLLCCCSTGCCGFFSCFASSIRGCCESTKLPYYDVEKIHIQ

T2: HCoV-NL63 spike (HCoV-NL63, UniProt Q6Q1S2 19-1356)
T2 construct: whole, on cells
T2 sequence: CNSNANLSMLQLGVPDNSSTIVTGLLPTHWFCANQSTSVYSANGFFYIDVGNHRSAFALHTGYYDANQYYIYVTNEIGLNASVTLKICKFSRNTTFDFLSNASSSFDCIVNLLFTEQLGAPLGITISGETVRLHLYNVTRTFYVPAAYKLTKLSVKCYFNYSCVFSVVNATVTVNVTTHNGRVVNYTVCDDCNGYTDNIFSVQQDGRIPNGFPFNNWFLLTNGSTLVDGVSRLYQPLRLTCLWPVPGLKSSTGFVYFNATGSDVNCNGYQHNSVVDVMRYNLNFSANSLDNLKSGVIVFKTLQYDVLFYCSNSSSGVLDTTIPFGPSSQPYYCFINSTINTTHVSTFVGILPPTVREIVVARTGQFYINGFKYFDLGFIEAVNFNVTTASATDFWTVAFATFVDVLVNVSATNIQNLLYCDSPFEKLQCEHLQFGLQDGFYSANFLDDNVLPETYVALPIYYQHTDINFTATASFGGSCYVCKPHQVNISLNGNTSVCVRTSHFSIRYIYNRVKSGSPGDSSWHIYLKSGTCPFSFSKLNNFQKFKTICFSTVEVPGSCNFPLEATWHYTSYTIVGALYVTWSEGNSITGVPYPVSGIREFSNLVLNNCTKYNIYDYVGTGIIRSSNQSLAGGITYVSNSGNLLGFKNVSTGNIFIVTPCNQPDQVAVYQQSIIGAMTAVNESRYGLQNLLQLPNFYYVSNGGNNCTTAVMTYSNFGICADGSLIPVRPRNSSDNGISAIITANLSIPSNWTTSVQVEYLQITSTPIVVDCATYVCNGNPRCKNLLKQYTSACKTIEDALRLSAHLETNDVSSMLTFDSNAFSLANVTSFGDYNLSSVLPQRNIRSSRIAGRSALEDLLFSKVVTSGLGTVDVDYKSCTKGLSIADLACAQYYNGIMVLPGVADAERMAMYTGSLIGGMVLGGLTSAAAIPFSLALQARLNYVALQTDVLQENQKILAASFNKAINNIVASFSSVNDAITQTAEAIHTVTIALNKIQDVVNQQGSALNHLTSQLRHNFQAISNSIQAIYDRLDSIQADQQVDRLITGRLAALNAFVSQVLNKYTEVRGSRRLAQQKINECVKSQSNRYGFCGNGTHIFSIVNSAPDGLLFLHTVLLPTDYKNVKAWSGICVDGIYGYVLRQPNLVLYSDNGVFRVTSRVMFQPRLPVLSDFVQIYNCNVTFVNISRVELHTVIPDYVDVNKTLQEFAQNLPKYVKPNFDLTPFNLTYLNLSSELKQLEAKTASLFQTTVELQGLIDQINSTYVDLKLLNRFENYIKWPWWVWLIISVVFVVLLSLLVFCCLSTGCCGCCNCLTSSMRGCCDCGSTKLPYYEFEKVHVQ

B1: S-B8 (antibody, V domains shown)
VH: QVQLVQSGGGLIQPGGSLRLSCAASGFTVSLSHMNWVRQAPGKGLEWVSITYGDGNSDYADSVKGRFTISRDNSKNTLYLQMNSLRAEDTAVYYCAREYYYGMDVWGQGTTVTVSS
VL: not shown
notes: also called S-B8 dimer
B2: S-D4 (antibody, V domains shown)
VH: QVQLQESGGGVVQPGRSLRLSCEVSGFTFSDYGMHWVRQAPGKGLEWVAVIWSEGSTEYYADSVKGRFTISRDNSKDTLYLQMNSLRAEDTAVYYCARPGYPTSTDRSPAAAGARQYYYYGMDVWGQGTTVTVSS
VL: NFMLTQPHSVSESPGKTVTISCTRSGGSGAANYVQWYQQRPGSSPTTLIYEDSRRPPGVPDRFSGSVDTSSNSASLTISGLQTEDEADYYCQSYDSSNHVVFGGGTKLTVLG
notes: also called S-D4 dimer; S-D4 IgG4
B3: S-E6 (antibody, V domains shown)
VH: QVTLRESGPGLVKPSETLSLTCAVSGGSLSSVNYYWSWIRQHPGKGLEWIGYIYYSGSTNYNPSLKSRVTMSLDTSKNQFSLKLSSVTAADTAVYYCATPGAIMGALHIWGQGTLVTVSS
VL: QAVLTQPSSASSTPGQRVIISCSGSSSNIGSNTVSWYQQVPGAAPKLLIYFDYRRPSGVPDRFSGTRSGTSASLGISGLQSEDEADYYCAAWDDSLSAWVFGRGTKLTVLG
notes: also called S-E6 dimer; dimer S-E6

What was measured:
HCoV-229E spike = target: T1, HCoV-229E spike; test: FACS, transfected HEK293T cells, IgG4 antibody
HCoV-NL63 spike = target: T2, HCoV-NL63 spike; test: FACS, transfected HEK293T cells, IgG4 antibody

Binder	binding result (HCoV-229E spike)	binding result (HCoV-NL63 spike)
B1	no binding	no binding
B2	no binding	no binding
B3	no binding	no binding
